In patent US20230348867:

Tests used:
Assay in all cases: cell_activity
[1] = system: SB100X (Variant 27) K14R,K33A,R115H,R214D,K215A,E216V,N217Q,M243H,T314N (synthetic); settings: human CD34+ HSC, GFP+ CFU-E
[2] = system: SB Variant 18 K14R,K30R,A205K,H207V,K208R,D210E,R214D,K215A,E216V,N217Q,M243H,G317E (synthetic); settings: HeLa transposition
[3] = system: SB Variant 7 (12B1) K14R,T83A,M243Q (synthetic); settings: HeLa transposition
[4] = system: SB Variant 21 K14R,K30R,R143L,A205K,H207V,K208R,D210E,R214D,K215A,E216V,N217Q,M243H,E267D (synthetic); settings: HeLa transposition
[5] = system: SB Variant 4 K13D,K33A,T83A,H207V,K208R,D210E,M243Q (synthetic); settings: HeLa transposition
[6] = system: SB Variant 1 (2G6/6G2) K14R,R214D,K215A,E216V,N217Q (synthetic); settings: HeLa transposition
[7] = system: SB Variant 5 K13A,K33A,R214D,K215A,E216V,N217Q (synthetic); settings: HeLa transposition
[8] = system: SB Variant 3 (6A5) K14R,K30R,A205K,H207V,K208R,D210E,R214D,K215A,E216V,N217Q,M243H (synthetic); settings: HeLa transposition
[9] = system: SB Variant 20 K14R,K30R,R147E,A205K,H207V,K208R,D210E,R214D,K215A,E216V,N217Q,M243H,T314N (synthetic); settings: HeLa transposition
[10] = system: SB Variant 12 K14R,T83A,M243Q,T314N (synthetic); settings: HeLa transposition
[11] = system: SB M3a (Variant 30) K13A,K33A,T83A,R214D,K215A,E216V,N217Q (synthetic); settings: HeLa transposition
[12] = system: SB Variant 6 K33A,T83A,R214D,K215A,E216V,N217Q,G317E (synthetic); settings: HeLa transposition
[13] = system: SB Variant 14 K14R,K30R,R143L,A205K,H207V,K208R,D210E,R214D,K215A,E216V,N217Q,M243H (synthetic); settings: HeLa transposition
[14] = system: SB Variant 23 K14R,K30R,R143L,A205K,H207V,K208R,D210E,R214D,K215A,E216V,N217Q,M243H,G317E (synthetic); settings: HeLa transposition
[15] = system: SB Variant 2 (3D5) K33A,R115H,R214D,K215A,E216V,N217Q,M243H (synthetic); settings: HeLa transposition
[16] = system: SB Variant 15 K14R,K30R,R147E,A205K,H207V,K208R,D210E,R214D,K215A,E216V,N217Q,M243H (synthetic); settings: HeLa transposition
[17] = system: SB Variant 17 K14R,K30R,A205K,H207V,K208R,D210E,R214D,K215A,E216V,N217Q,M243H,T314N (synthetic); settings: HeLa transposition
[18] = system: SB Variant 16 K14R,K30R,A205K,H207V,K208R,D210E,R214D,K215A,E216V,N217Q,M243H,E267D (synthetic); settings: HeLa transposition
[19] = system: SB10 Sleeping Beauty transposase (synthetic (reconstructed from fish)); settings: HeLa transposition, G418 colonies, reference
[20] = system: SB Variant 8 K14R,T83A,I100L,M243Q (synthetic); settings: HeLa transposition

Row | Substance | binding signal [1] | binding signal [2] | binding signal [3] | binding signal [4] | binding signal [5] | binding signal [6] | binding signal [7] | binding signal [8] | binding signal [9] | binding signal [10] | binding signal [11] | binding signal [12] | binding signal [13] | binding signal [14] | binding signal [15] | binding signal [16] | binding signal [17] | binding signal [18] | binding signal [19] | binding signal [20]
1 | pT2-HB-CAG-GFP SB transposon | 100 fold vs SB10 | – | – | – | – | – | – | – | – | – | – | – | – | – | – | – | – | – | – | –
2 | pTNeo (SB inverted repeats flanking NeoR) | – | 25 fold vs SB10 | 15 fold vs SB10 | 50 fold vs SB10 | 20 fold vs SB10 | 20 fold vs SB10 | 20 fold vs SB10 | 30 fold vs SB10 | 40 fold vs SB10 | 10 fold vs SB10 | 10 fold vs SB10 | 20 fold vs SB10 | 40 fold vs SB10 | 35 fold vs SB10 | 30 fold vs SB10 | 30 fold vs SB10 | 25 fold vs SB10 | 30 fold vs SB10 | 1 fold vs SB10 | 5 fold vs SB10
